Laboratory results as given in publication PMC9067469.

Assays:
Assay in all cases: SPR
[1] = target: IgG1 (pH-dependent anti-latent myostatin antibody with wild-type human IgG1 constant region) (human)
[2] = target: V3-pI(A)-N434A (human IgG1 Fc variant G236N/H268D/Q311R/A330K/D413K/N434A of the pH-dependent anti-l (human))
[3] = target: V3-N434A (human IgG1 Fc variant G236N/H268D/A330K/N434A of the pH-dependent anti-latent myostatin antibody) (human)
[4] = target: V2 (human IgG1 Fc variant G236N/H268D of an anti-latent myostatin antibody) (human)
[5] = target: V3 (human IgG1 Fc variant G236N/H268D/A330K of the pH-dependent anti-latent myostatin antibody) (human)
[6] = target: V1 (human IgG1 Fc variant G236N of an anti-latent myostatin antibody) (human)

Substance: cynomolgus FcRn (from UniProt Q8SPV9 24-365) (receptor)
- Kd [1]: 1.52 µM
- Kd [2]: 0.355 µM
- Kd [3]: 0.526 µM

Substance: cynomolgus FcγRIIIa(R), extracellular region (from UniProt Q8SPW2 17-208) (receptor)
- relative binding per units (IgG1 = 1) (relative to IgG1) [1]: 1

Substance: cynomolgus FcγRIIIa(S), extracellular region (from UniProt Q8SPW2 17-208) (receptor)
- relative binding per units (IgG1 = 1) (relative to IgG1) [1]: 1

Substance: cynomolgus FcγRIIa1, extracellular region (receptor)
- relative binding per units (IgG1 = 1) (relative to IgG1) [1]: 1
- relative binding per units (IgG1 = 1) (relative to IgG1) [2]: 1.97
- relative binding per units (IgG1 = 1) (relative to IgG1) [4]: 1.45
- relative binding per units (IgG1 = 1) (relative to IgG1) [5]: 2

Substance: cynomolgus FcγRIIa2, extracellular region (receptor)
- relative binding per units (IgG1 = 1) (relative to IgG1) [1]: 1
- relative binding per units (IgG1 = 1) (relative to IgG1) [2]: 2.52
- relative binding per units (IgG1 = 1) (relative to IgG1) [4]: 1.89
- relative binding per units (IgG1 = 1) (relative to IgG1) [5]: 2.56

Substance: cynomolgus FcγRIIa3, extracellular region (receptor)
- relative binding per units (IgG1 = 1) (relative to IgG1) [1]: 1
- relative binding per units (IgG1 = 1) (relative to IgG1) [2]: 2.76
- relative binding per units (IgG1 = 1) (relative to IgG1) [4]: 2.36
- relative binding per units (IgG1 = 1) (relative to IgG1) [5]: 2.77

Substance: cynomolgus FcγRIIb, extracellular region (receptor)
- relative binding per units (IgG1 = 1) (relative to IgG1) [1]: 1
- relative binding per units (IgG1 = 1) (relative to IgG1) [2]: 2.83

Substance: cynomolgus FcγRIa, extracellular region (receptor)
- relative binding per units (IgG1 = 1) (relative to IgG1) [1]: 1
- relative binding per units (IgG1 = 1) (relative to IgG1) [2]: 0.71

Substance: human FcγRIIIa(F), extracellular region (from UniProt P08637 17-208) (receptor)
- relative binding per units (IgG1 = 1) (relative to IgG1) [1]: 1

Substance: human FcγRIIIa(V), extracellular region (from UniProt P08637 17-208) (receptor)
- relative binding per units (IgG1 = 1) (relative to IgG1) [1]: 1

Substance: human FcγRIa, extracellular region (from UniProt P12314 16-292) (receptor)
- relative binding per units (IgG1 = 1) (relative to IgG1) [6]: 0.16
